# From US20200283478A1 (Genentech, published 2020)
# Ends that are not written are not given here.
# B1: SEQ ID NO 342 (peptide)
# peptide: TAFTSWEEYLDWVGSGQISYLRNA
# modifications: not fully specified; also: Q (1) D-amino acid, place in chain unclear (phage-displayed)
# Target: T1, proprotein convertase subtilisin/kexin type 9 (PCSK9) (human, UniProt Q8NBP7 31-692)
# T1 construct: His-tagged full-length PCSK9 in TR-FRET and SPR, biotinylated in phage ELISA; secreted protein is autoprocessed (prodomain plus catalytic/CRD chain starting at S153); also called rec.PCSK9; His-PCSK9
# Assay: phage spot ELISA
# T1 sequence (Q8NBP7 other isoform, or with tags, fused parts or gaps limits assumed): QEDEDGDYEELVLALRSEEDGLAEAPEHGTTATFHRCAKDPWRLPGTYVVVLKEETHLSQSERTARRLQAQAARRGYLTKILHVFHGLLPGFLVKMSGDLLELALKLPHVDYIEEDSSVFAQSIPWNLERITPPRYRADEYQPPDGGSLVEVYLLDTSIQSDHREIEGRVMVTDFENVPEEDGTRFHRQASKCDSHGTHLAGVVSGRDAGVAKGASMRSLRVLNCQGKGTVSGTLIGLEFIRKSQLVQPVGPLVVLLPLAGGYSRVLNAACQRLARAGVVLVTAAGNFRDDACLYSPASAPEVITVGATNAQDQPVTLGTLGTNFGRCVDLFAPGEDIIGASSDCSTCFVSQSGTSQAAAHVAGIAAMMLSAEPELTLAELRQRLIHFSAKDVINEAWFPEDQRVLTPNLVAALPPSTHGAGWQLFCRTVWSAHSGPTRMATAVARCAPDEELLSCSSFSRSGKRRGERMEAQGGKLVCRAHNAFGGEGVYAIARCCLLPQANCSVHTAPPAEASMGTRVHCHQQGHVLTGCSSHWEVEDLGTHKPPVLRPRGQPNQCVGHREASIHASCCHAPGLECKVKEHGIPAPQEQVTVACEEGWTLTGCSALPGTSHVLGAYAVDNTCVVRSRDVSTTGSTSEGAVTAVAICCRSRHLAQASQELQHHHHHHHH
Binder,ELISA,s/n ratio
TAFTSWEEYLDWVGSGQCYPWCRL [SEQ ID NO 338],2.71,25.1
TAFTSWEEYLDWVGSGCWTYLRGGCSVT [SEQ ID NO 339],3.07,22.1
TAFTSWEEYLDWVGSGPRTYLRGLVD [SEQ ID NO 340],2.77,25.6
TAFTSWEEYLDWVGSGQTTYLRVSSS [SEQ ID NO 341],2.59,27
B1,2.7,22.9
TAFTSWEEYLDWVGSGRGEVYDKGGVIVHL [SEQ ID NO 343],2.84,30.5
TAFTSWEEYLDWVGSGGREMRSVIQM [SEQ ID NO 344],2.71,28.2
TAFTSWEEYLDWVGSGGDCGYHYMCSMT [SEQ ID NO 345],2.75,25
TAFTSWEEYLDWVGSGQELPNHRRLS [SEQ ID NO 346],2.3,19.1
TAFTSWEEYLDWVGSGNMCYLRGKMDCNIV [SEQ ID NO 347],2.91,30.9
TAFTSWEEYLDWVGSGVCSDHYIGGKEVRC [SEQ ID NO 348],2.99,27.4
TAFTSWEEYLDWVGSGCCSYGYEKCCNG [SEQ ID NO 349],2.87,28.6
TAFTSWEEYLDWVGSGSETGLGTYYG [SEQ ID NO 350],2.81,28.1
TAFTSWEEYLDWVGSGSPCRVGYTPC [SEQ ID NO 351],2.92,27.7
TAFTSWEEYLDWVGSGNCARLYSHQRDYSQVC [SEQ ID NO 352],2.66,24.4
TAFTSWEEYLDWVGSGCLDRSGGCYTREGYLS [SEQ ID NO 353],3.06,29
TAFTSWEEYLDWVGSGSSTWHFVGGVRV [SEQ ID NO 354],2.71,24.4
TAFTSWEEYLDWVGSGCYPLCRVG [SEQ ID NO 355],3.06,16.2
TAFTSWEEYLDWVGSGCYPLCRVL [SEQ ID NO 364],2.86,31.1
TAFTSWEEYLDWVGSGKCDSHYIRGVVACH [SEQ ID NO 356],2.95,30.2

# Target: T2, PCSK9Δhelix (human, Chemically biotinylated in the phage ELISAs; the site is not given.)
# T2 construct: construct M1-Q692 with engineered TEV site, cleaved by TEV; also called His-PCSK9Δhelix; open groove PCSK9Δhelix
# Assay: phage spot ELISA
# T2 sequence (prodomain, as listed by the source mutant limits assumed, chain 1 of 2): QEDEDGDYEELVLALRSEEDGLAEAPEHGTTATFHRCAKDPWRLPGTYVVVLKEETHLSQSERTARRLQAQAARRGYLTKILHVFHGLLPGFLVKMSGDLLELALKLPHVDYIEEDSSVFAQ
# T2 sequence (chain, as listed by the source mutant limits assumed, chain 2 of 2): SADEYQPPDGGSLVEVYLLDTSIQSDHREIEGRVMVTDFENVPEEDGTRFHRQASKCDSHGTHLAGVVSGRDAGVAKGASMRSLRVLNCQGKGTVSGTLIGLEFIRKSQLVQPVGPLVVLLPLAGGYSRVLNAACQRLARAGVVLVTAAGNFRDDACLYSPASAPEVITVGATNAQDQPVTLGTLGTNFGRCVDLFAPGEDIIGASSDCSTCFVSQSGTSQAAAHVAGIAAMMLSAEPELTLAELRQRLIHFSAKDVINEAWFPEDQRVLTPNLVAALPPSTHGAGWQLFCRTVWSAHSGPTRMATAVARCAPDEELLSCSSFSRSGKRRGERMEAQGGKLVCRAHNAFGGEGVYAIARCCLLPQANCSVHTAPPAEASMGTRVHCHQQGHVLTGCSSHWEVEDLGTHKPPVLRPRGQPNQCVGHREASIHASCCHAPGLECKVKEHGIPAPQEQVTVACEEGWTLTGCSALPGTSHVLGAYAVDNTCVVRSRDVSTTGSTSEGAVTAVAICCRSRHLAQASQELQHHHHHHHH
Binder,ELISA,s/n ratio
TAFTSWEEYLDWVGSGQCYPWCRL [SEQ ID NO 338],2.65,29.2
TAFTSWEEYLDWVGSGCWTYLRGGCSVT [SEQ ID NO 339],3.05,20.2
TAFTSWEEYLDWVGSGPRTYLRGLVD [SEQ ID NO 340],2.73,25.1
TAFTSWEEYLDWVGSGQTTYLRVSSS [SEQ ID NO 341],2.29,24.4
B1,2.31,22.6
TAFTSWEEYLDWVGSGRGEVYDKGGVIVHL [SEQ ID NO 343],2.83,30.1
TAFTSWEEYLDWVGSGGREMRSVIQM [SEQ ID NO 344],2.74,26.6
TAFTSWEEYLDWVGSGGDCGYHYMCSMT [SEQ ID NO 345],2.63,25.5
TAFTSWEEYLDWVGSGQELPNHRRLS [SEQ ID NO 346],2.43,14.3
TAFTSWEEYLDWVGSGNMCYLRGKMDCNIV [SEQ ID NO 347],2.83,28.6
TAFTSWEEYLDWVGSGVCSDHYIGGKEVRC [SEQ ID NO 348],2.94,15.4
TAFTSWEEYLDWVGSGCCSYGYEKCCNG [SEQ ID NO 349],2.88,27.2
TAFTSWEEYLDWVGSGSETGLGTYYG [SEQ ID NO 350],2.78,25.5
TAFTSWEEYLDWVGSGSPCRVGYTPC [SEQ ID NO 351],2.87,25.4
TAFTSWEEYLDWVGSGNCARLYSHQRDYSQVC [SEQ ID NO 352],2.64,26.1
TAFTSWEEYLDWVGSGCLDRSGGCYTREGYLS [SEQ ID NO 353],3.05,30.4
TAFTSWEEYLDWVGSGSSTWHFVGGVRV [SEQ ID NO 354],2.88,29.7
TAFTSWEEYLDWVGSGCYPLCRVG [SEQ ID NO 355],3.05,29.6
TAFTSWEEYLDWVGSGCYPLCRVL [SEQ ID NO 364],3.09,31.9
TAFTSWEEYLDWVGSGKCDSHYIRGVVACH [SEQ ID NO 356],3.03,30.9
